{
  "source": "paper PMC8230831",
  "biological_target": "CXC chemokine receptor 4 (CXCR4) (human (endogenous in HeLa)) (UniProt P61073)",
  "sequence (P61073 whole entry)": "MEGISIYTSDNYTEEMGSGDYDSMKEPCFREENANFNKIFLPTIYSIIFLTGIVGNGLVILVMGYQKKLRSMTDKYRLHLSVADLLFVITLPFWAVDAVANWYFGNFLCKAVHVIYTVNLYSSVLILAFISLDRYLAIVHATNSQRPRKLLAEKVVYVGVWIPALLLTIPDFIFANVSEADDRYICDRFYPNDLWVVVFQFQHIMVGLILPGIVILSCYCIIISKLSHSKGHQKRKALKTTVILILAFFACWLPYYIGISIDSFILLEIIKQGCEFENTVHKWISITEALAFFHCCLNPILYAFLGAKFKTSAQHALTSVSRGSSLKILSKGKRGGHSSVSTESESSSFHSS",
  "details": "scale: apoptotic figures per 400 x magnification tumor field",
  "data": [
    {"substance": "biparatopic EPIX4-(RK)-GFP-H6/T22-GFP-H6 NPs (complex)", "values": [
      {"measurement": "apoptotic figures in CXCR4+ M5 colorectal tumors of mice, 0.5 to 24 h after a single 200 µg i.v. dose (histology); peak at 24 h", "value": 30}
    ]}
  ]
}
